Source: patent publication US20210139559A1

Biological target: human VEGF165 ligand (human) (UniProt P15692)
Test: serial dilution mixed with 50 pM human VEGF165 in solution, unbound VEGF165 measured by ELISA

Chain of human VEGF165 ligand (human) (P15692 other isoform, or with tags, fused parts or gaps limits assumed): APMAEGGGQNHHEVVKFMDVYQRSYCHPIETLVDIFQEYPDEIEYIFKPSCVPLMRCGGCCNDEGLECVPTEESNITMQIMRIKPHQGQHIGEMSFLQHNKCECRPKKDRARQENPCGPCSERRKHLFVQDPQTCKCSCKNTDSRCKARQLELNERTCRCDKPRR

IC50: 9.82 pM
Substance: Aflibercept (Fc fusion)
